This experiment deals with H3N2 A/Hong Kong/1/1968 HA [change] (influenza A virus A/Hong Kong/1/1968 (H3N2)).

Where “and” joins values, the source holds several entries; their conditions need not be identical. Equal values may be shown once.

In general, Kd refers to the equilibrium constant for the complex coming apart.

As to human monoclonal antibody CR8020, the Kd was 2 nM and 3 nM.
